Measured values from paper PMC12079483 (2025).
Values belong to the binder of their own block, whether it stands above or below them.

What was measured:
[1] = molecular target: D20-20K (IL-2 with 20K PEG conjugated at Asp20) (UniProt P60568 21-153, D20 to NAEK, Nε-2-azideoethyloxycarbonyl-L-lysine (NAEK) at position 20, conjugated with DBCO-tethered PEG of 20 kDa by copper-free click reaction); test: SPR
[2] = molecular target: Y45-20K (IL-2 with 20K PEG conjugated at Tyr45) (UniProt P60568 21-153, Y45 to NAEK, Nε-2-azideoethyloxycarbonyl-L-lysine (NAEK) at position 45, conjugated with DBCO-tethered PEG of 20 kDa by copper-free click reaction); test: SPR

Kd [1]: 58.1 nM
B1: extracellular domains of the trimeric IL-2 receptor (IL-2Rαβγ) (complex)
chain 1: ELCDDDPPEIPHATFKAMAYKEGTMLNCECKRGFRRIKSGSLYMLCTGNSSHSSWDNQCQCTSSATRNTTKQVTPQPEEQKERKTTEMQSPMQPVDQASLPGHCREPPPWENEATERIYHFVVGQMVYYQCVQGYRALHRGPAESVCKMTHGKTRWTQPQLICTGEMETSQFPGEEKPQASPEGRPESETSCLVTTTDFQIQTEMAATMETSIFTTEYQ
chain 2: AVNGTSQFTCFYNSRANISCVWSQDGALQDTSCQVHAWPDRRRWNQTCELLPVSQASWACNLILGAPDSQKLTTVDIVTLRVLCREGVRWRVMAIQDFKPFENLRLMAPISLQVVHVETHRCNISWEISQASHYFERHLEFEARTLSPGHTWEEAPLLTLKQKQEWICLETLTPDTQYEFQVRVKPLQGEFTTWSPWSQPLAFRTKPAALGKDT
chain 3: LNTTILTPNGNEDTTADFFLTTMPTDSLSVSTLPLPEVQCFVFNVEYMNCTWNSSSEPQPTNLTLHYWYKNSDNDKVQKCSHYLFSEEITSGCQLQKKEIHLYQTFVVQLQDPREPRRQATQMLKLQNLVIPWAPENLTLHKLSESQLELNWNNRFLNHCLEHLVQYRTDWDHSWTEQSVDYRHKFSLPSVDGQKRYTFRVRSRFNPLCGSAQHWSEWSHPIHWGSNTSKENPFLFALEA

Kd [2]: 690 nM
B2: extracellular domain of the IL-2 receptor β chain (IL-2Rβ) (receptor)
chain: B1 chain 2

Kd [2]: 32.8 nM
B3: extracellular domains of the dimeric IL-2 receptor (IL-2Rβγ) (complex)
chain 1: B1 chain 2
chain 2: B1 chain 3

Kd [1]: 99.9 nM
B4: extracellular domain of the IL-2 receptor α chain (IL-2Rα, CD25) (receptor)
chain: B1 chain 1
